Test results taken from article PMC3167633.

T1: Haa1(DBD)-His6 (Saccharomyces cerevisiae, UniProt Q12753 1-123)
T1 sequence: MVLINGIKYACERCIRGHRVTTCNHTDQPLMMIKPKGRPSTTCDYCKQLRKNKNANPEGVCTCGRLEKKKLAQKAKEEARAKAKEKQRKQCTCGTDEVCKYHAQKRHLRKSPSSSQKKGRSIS

B1: TPO3 wild-type HRE (GGCGAGGGG) (dsDNA)
DNA 1: TTCTCTGTGCTTGGCGAGGGGTTTACTGGAGCCCAATC
DNA 2: GATTGGGCTCCAGTAAACCCCTCGCCAAGCACAGAGAA
B2: HRE mutant 7 (GGCGAGGAG) (dsDNA)
DNA 1: TTCTCTGTGCTTGGCGAGGAGTTTACTGGAGCCCAATC
DNA 2: GATTGGGCTCCAGTAAACTCCTCGCCAAGCACAGAGAA
B3: HRE mutant 3 (GGCGCGGGG) (dsDNA)
DNA 1: TTCTCTGTGCTTGGCGCGGGGTTTACTGGAGCCCAATC
DNA 2: GATTGGGCTCCAGTAAACCCCGCGCCAAGCACAGAGAA
B4: HRE mutant 8 (GGCGAGGGA) (dsDNA)
DNA 1: TTCTCTGTGCTTGGCGAGGGATTTACTGGAGCCCAATC
DNA 2: GATTGGGCTCCAGTAAATCCCTCGCCAAGCACAGAGAA
B5: HRE mutant 6 (GGCGAGGCG) (dsDNA)
DNA 1: TTCTCTGTGCTTGGCGAGGCGTTTACTGGAGCCCAATC
DNA 2: GATTGGGCTCCAGTAAACGCCTCGCCAAGCACAGAGAA
B6: HRE mutant 2 (GGCCAGGGG) (dsDNA)
DNA 1: TTCTCTGTGCTTGGCCAGGGGTTTACTGGAGCCCAATC
DNA 2: GATTGGGCTCCAGTAAACCCCTGGCCAAGCACAGAGAA
B7: HRE mutant 5 (GGCGAGAGG) (dsDNA)
DNA 1: TTCTCTGTGCTTGGCGAGAGGTTTACTGGAGCCCAATC
DNA 2: GATTGGGCTCCAGTAAACCTCTCGCCAAGCACAGAGAA
B8: HRE mutant 1 (AGCGAGGGG) (dsDNA)
DNA 1: TTCTCTGTGCTTAGCGAGGGGTTTACTGGAGCCCAATC
DNA 2: GATTGGGCTCCAGTAAACCCCTCGCTAAGCACAGAGAA
B9: HRE mutant 4 (GGCGAAGGG) (dsDNA)
DNA 1: TTCTCTGTGCTTGGCGAAGGGTTTACTGGAGCCCAATC
DNA 2: GATTGGGCTCCAGTAAACCCTTCGCCAAGCACAGAGAA

target: T1, Haa1(DBD)-His6; experiment: SPR

Q: B1 was tested. Which Kd did it give?
A: 2 ± 0.2 nM

Q: How did the Kd turn out when B2 was run?
A: 6780 ± 865 nM

Q: For B3, which Kd is on record?
A: 13.6 ± 0.9 nM

Q: How did the Kd turn out when B4 was run?
A: 119 ± 3.6 nM

Q: For B5, which Kd is on record?
A: 38.5 ± 4.5 nM

Q: How did the Kd turn out when B6 was run?
A: 4.3 ± 0.3 nM

Q: With B7 as the binder, how does the Kd read?
A: 21.4 ± 6.1 nM

Q: How did the Kd turn out when B8 was run?
A: 1.9 ± 0.3 nM

Q: How did the Kd turn out when B9 was run?
A: 396 ± 51.1 nM
